Measurements as given in the supplement of paper PMC11780869.

Test system: Bacillus subtilis
Assay: cleaved RNA product abundance (RNA/gDNA barcode ratio) relative to median wild-type variant (ratio to wild type); higher = more accumulation of the downstream cleavage product
Details: cleavage site: cggR-gapA (positions -7 to +36 mutated)
How it was run: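 Sequencing of barcodes from gel-selected, reverse-transcribed cleaved RNA and from genomic DNA, with UMI collapsing, yielded a per-construct RNA:gDNA ratio. Scaled to the median construct with the unmutated site, this ratio is the cleaved product abundance. The barcoded reporters (truncated aprE or tetM mRNAs with mutagenized RNase Y cleavage-site windows) were integrated into the B. subtilis chromosome, and cultures grew in LB at 37°C from OD600 0.0003 to 0.3.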

[1] = experiment (reporter, strain, medium): exp 2b: truncated aprE reporter, strain BJT200
[2] = experiment (reporter, strain, medium): exp 4a: truncated aprE reporter, strain BJT201 with 2% xylose (RNase J1 expressed)
[3] = experiment (reporter, strain, medium): exp 6: tetM reporter, strain 168

Sequence | cleaved RNA product abundance [1] | cleaved RNA product abundance [2] | cleaved RNA product abundance [3]
ACAGACGAAGGAGCCGCAAAGAAGTTCTTAAGGGATAAATAATCCCTCAATATAAATATCTCTCACTTATTTAAA | 0.104 | 0.212 | 
ACAGACGAAGGAGCCGCAAAGAAGTTCTTAAGGGATCAATAATCCCTCAATATAAATATCTCTCACTTATTTAAA |  | 0.205 | 
ACAGACGAAGGAGCCGCAAAGAAGTTCTTAAGGGATGAAGAATCCCTCAATATAAATATCTCTCACTTATTTAAA | 0.14 |  | 
ACAGACGAAGGAGCCGCAAAGAAGTTCTTAAGGGATGAATAATACCTCAATATAAATATCTCTCACTTATTTAAA |  | 0.14 | 
ACAGACGAAGGAGCCGCAAAGAAGTTCTTAAGGGATGAATAATCCATCAATATAAATATCTCTCACTTATTTAAA |  | 0.199 | 
ACAGACGAAGGAGCCGCAAAGAAGTTCTTAAGGGATGAATAATCCCACAATATAAATATCTCTCACTTATTTAAA | 0.119 |  | 
ACAGACGAAGGAGCCGCAAAGAAGTTCTTAAGGGATGAATAATCCCTAAATATAAATATCTCTCACTTATTTAAA | 0.236 | 0.193 | 
ACAGACGAAGGAGCCGCAAAGAAGTTCTTAAGGGATGAATAATCCCTCAAAATAAATATCTCTCACTTATTTAAA |  | 0.182 | 
ACAGACGAAGGAGCCGCAAAGAAGTTCTTAAGGGATGAATAATCCCTCAATATAAAAATCTCTCACTTATTTAAA | 0.181 |  | 
ACAGACGAAGGAGCCGCAAAGAAGTTCTTAAGGGATGAATAATCCCTCAATATAAATAACTCTCACTTATTTAAA |  | 0.162 | 
ACAGACGAAGGAGCCGCAAAGAAGTTCTTAAGGGATGAATAATCCCTCAATATAAATATCTCTCACTTATTTAAA | 0.168 | 0.254 | 0.299
ACAGACGAAGGAGCCGCAAAGAAGTTCTTAAGGGATGAATAATCCCTCAATTTAAATATCTCTCACTTATTTAAA |  | 0.0838 | 
ACAGACGAAGGAGCCGCAAAGAAGTTCTTAAGGGATGAATAATCCTTCAATATAAATATCTCTCACTTATTTAAA | 0.139 |  | 
ACAGACGAAGGAGCCGCAAAGAAGTTCTTAAGGGATGAATAATCTCTCAATATAAATATCTCTCACTTATTTAAA |  | 0.199 | 
ACAGACGAAGGAGCCGCAAAGAAGTTCTTAAGGGATGAATAATGCCTCAATATAAATATCTCTCACTTATTTAAA | 0.0955 |  | 
ACAGACGAAGGAGCCGCAAAGAAGTTCTTAAGGGATGAATATTCCCTCAATATAAATATCTCTCACTTATTTAAA |  | 0.245 | 
ACAGACGAAGGAGCCGCAAAGAAGTTCTTAAGGGATGAATGATCCCTCAATATAAATATCTCTCACTTATTTAAA | 0.107 |  | 
ACAGACGAAGGAGCCGCAAAGAAGTTCTTAAGGGATGAATTATCCCTCAATATAAATATCTCTCACTTATTTAAA |  | 0.126 | 
ACAGACGAAGGAGCCGCAAAGAAGTTCTTAAGGGATTAATAATCCCTCAATATAAATATCTCTCACTTATTTAAA |  | 0.301 | 
ACAGACGAAGGAGCCGCAAAGAAGTTCTTAAGGTATGAATAATCCCTCAATATAAATATCTCTCACTTATTTAAA |  | 0.145 | 
ACAGACGAAGGAGCCGCAAAGAAGTTCTTAAGTGATGAATAATCCCTCAATATAAATATCTCTCACTTATTTAAA | 0.0656 | 0.0965 | 

Sequence | cleaved RNA product abundance [1] | cleaved RNA product abundance [2] | cleaved RNA product abundance [3]
ACAGACGAAGGAGCCGCAAAGAAGTTCTTAATGGATGAATAATCCCTCAATATAAATATCTCTCACTTATTTAAA |  | 0.119 | 
ACAGACGAAGGAGCCGCAAAGAAGTTCTTCAGGGATGAATAATCCCTCAATATAAATATCTCTCACTTATTTAAA |  | 0.262 | 
ACAGACGAAGGAGCCGCAAAGAAGTTGTAAAGGGATGAATAATCCCTCAATATAAATATCTCTCACTTATTTAAA | 0.272 |  | 
ACAGACGAAGGAGCCGCAAAGAAGTTGTTAAAGGATGAATAATCCCTCAATATAAATATCTCTCACTTATTTAAA |  | 0.0874 | 
ACAGACGAAGGAGCCGCAAAGAAGTTGTTAAGAGATGAATAATCCCTCAATATAAATATCTCTCACTTATTTAAA |  | 0.103 | 
ACAGACGAAGGAGCCGCAAAGAAGTTGTTAAGCGATGAATAATCCCTCAATATAAATATCTCTCACTTATTTAAA |  | 0.0544 | 
ACAGACGAAGGAGCCGCAAAGAAGTTGTTAAGGAATGAATAATCCCTCAATATAAATATCTCTCACTTATTTAAA |  | 0.136 | 
ACAGACGAAGGAGCCGCAAAGAAGTTGTTAAGGCATGAATAATCCCTCAATATAAATATCTCTCACTTATTTAAA | 0.103 |  | 
ACAGACGAAGGAGCCGCAAAGAAGTTGTTAAGGGAAGAATAATCCCTCAATATAAATATCTCTCACTTATTTAAA |  | 0.246 | 
ACAGACGAAGGAGCCGCAAAGAAGTTGTTAAGGGATAAATAATCCCTCAATATAAATATCTCTCACTTATTTAAA | 0.279 | 0.688 | 
ACAGACGAAGGAGCCGCAAAGAAGTTGTTAAGGGATGAATAAACCCTCAATATAAATATCTCTCACTTATTTAAA |  | 0.2 | 
ACAGACGAAGGAGCCGCAAAGAAGTTGTTAAGGGATGAATAATACCTCAATATAAATATCTCTCACTTATTTAAA | 0.101 |  | 0.134
ACAGACGAAGGAGCCGCAAAGAAGTTGTTAAGGGATGAATAATCACTCAATATAAATATCTCTCACTTATTTAAA |  | 0.0768 | 
ACAGACGAAGGAGCCGCAAAGAAGTTGTTAAGGGATGAATAATCCCTAAATATAAATATCTCTCACTTATTTAAA | 0.274 | 0.376 | 
ACAGACGAAGGAGCCGCAAAGAAGTTGTTAAGGGATGAATAATCCCTCAAAATAAATATCTCTCACTTATTTAAA |  | 0.316 | 
ACAGACGAAGGAGCCGCAAAGAAGTTGTTAAGGGATGAATAATCCCTCAATATAAATACCTCTCACTTATTTAAA |  | 0.182 | 
ACAGACGAAGGAGCCGCAAAGAAGTTGTTAAGGGATGAATAATCCCTCAATATAAATATCTCTCACTTATTTAAA | 0.357 | 0.453 | 0.537
ACAGACGAAGGAGCCGCAAAGAAGTTGTTAAGGGATGAATAATCCCTCTATATAAATATCTCTCACTTATTTAAA |  | 0.411 | 
ACAGACGAAGGAGCCGCAAAGAAGTTGTTAAGGGATGAATAATCCCTTAATATAAATATCTCTCACTTATTTAAA |  | 0.892 | 
ACAGACGAAGGAGCCGCAAAGAAGTTGTTAAGGGATGAATAATCCGTCAATATAAATATCTCTCACTTATTTAAA |  | 0.418 | 
ACAGACGAAGGAGCCGCAAAGAAGTTGTTAAGGGATGAATAATTCCTCAATATAAATATCTCTCACTTATTTAAA |  | 0.404 | 

Sequence | cleaved RNA product abundance [1] | cleaved RNA product abundance [2] | cleaved RNA product abundance [3]
ACAGACGAAGGAGCCGCAAAGAAGTTGTTAAGGGCTGAATAATCCCTCAATATAAATATCTCTCACTTATTTAAA |  | 0.198 | 
ACAGACGAAGGAGCCGCAAAGAAGTTGTTAAGGTATGAATAATCCCTCAATATAAATATCTCTCACTTATTTAAA |  | 0.12 | 
ACAGACGAAGGAGCCGCAAAGAAGTTGTTAAGTGATGAATAATCCCTCAATATAAATATCTCTCACTTATTTAAA |  | 0.0952 | 
ACAGACGAAGGAGCCGCAAAGAAGTTGTTCAGGGATGAATAATCCCTCAATATAAATATCTCTCACTTATTTAAA |  | 0.446 | 
ACAGACGAAGGAGCCGCAAAGAAGTTTATAAGGGATGAATAATCCCTCAATATAAATATCTCTCACTTATTTAAA |  | 0.438 | 
ACAGACGAAGGAGCCGCAAAGAAGTTTATTAAGGGATGAATAATCCCTCAATATAAATATCTCTCACTTATTTAA |  | 0.754 | 
ACAGACGAAGGAGCCGCAAAGAAGTTTCTAAGGGATGAATAATCCCTCAATATAAATATCTCTCACTTATTTAAA | 0.234 | 0.344 | 
ACAGACGAAGGAGCCGCAAAGAAGTTTTAAGGGATGAATAATCCCTCAATATAAATATCTCTCACTTATTTAAAG |  | 0.15 | 
ACAGACGAAGGAGCCGCAAAGAAGTTTTTAAAGGATGAATAATCCCTCAATATAAATATCTCTCACTTATTTAAA |  | 0.192 | 
ACAGACGAAGGAGCCGCAAAGAAGTTTTTAACGGATGAATAATCCCTCAATATAAATATCTCTCACTTATTTAAA |  | 0.197 | 0.192
ACAGACGAAGGAGCCGCAAAGAAGTTTTTAAGAGATGAATAATCCCTCAATATAAATATCTCTCACTTATTTAAA |  | 0.183 | 
ACAGACGAAGGAGCCGCAAAGAAGTTTTTAAGGAATGAATAATCCCTCAATATAAATATCTCTCACTTATTTAAA | 0.0825 | 0.163 | 
ACAGACGAAGGAGCCGCAAAGAAGTTTTTAAGGCATGAATAATCCCTCAATATAAATATCTCTCACTTATTTAAA |  | 0.119 | 
ACAGACGAAGGAGCCGCAAAGAAGTTTTTAAGGGAAGAATAATCCCTCAATATAAATATCTCTCACTTATTTAAA | 0.128 | 0.149 | 
ACAGACGAAGGAGCCGCAAAGAAGTTTTTAAGGGACGAATAATCCCTCAATATAAATATCTCTCACTTATTTAAA |  | 0.444 | 
ACAGACGAAGGAGCCGCAAAGAAGTTTTTAAGGGATAAATAATCCCTCAATATAAATATCTCTCACTTATTTAAA |  | 0.214 | 
ACAGACGAAGGAGCCGCAAAGAAGTTTTTAAGGGATCAATAATCCCTCAATATAAATATCTCTCACTTATTTAAA |  | 0.289 | 
ACAGACGAAGGAGCCGCAAAGAAGTTTTTAAGGGATGAAAAATCCCTCAATATAAATATCTCTCACTTATTTAAA |  | 0.293 | 
ACAGACGAAGGAGCCGCAAAGAAGTTTTTAAGGGATGAATAAACCCTCAATATAAATATCTCTCACTTATTTAAA |  | 0.17 | 
ACAGACGAAGGAGCCGCAAAGAAGTTTTTAAGGGATGAATAATCACTCAATATAAATATCTCTCACTTATTTAAA | 0.125 | 0.0945 | 
